Drawing on PMC4611135, this text covers stoichiometry N for two substances.

Assay [1] addresses DndE-His (Salmonella enterica serovar Cerro 87). Nature of the assay: pull-down; co-expression of dndDE with His tag on DndE (pDndDEH) in E. coli BL21 (DE3); nickel purification, 15% SDS-PAGE.
Assay [2] has as its target DndCDE complex (Salmonella enterica serovar Cerro 87). Briefly: SEC; DndCDE complex saturated with IscS, purified on Superdex 200; molar ratio by densitometry of the Coomassie-stained SDS-PAGE bands.

Usually stoichiometry N stands for a count of units in the complex or per binding partner. On to DndD (natural protein), for which, in assay [1], the stoichiometry N was found to be 1 molar ratio.

Take “Strep-IscS (from UniProt P0A6B7 1-404) (natural protein)”: in assay [2], the stoichiometry N stood at 1 molar ratio.
